Measured values published in the supplement of paper PMC10724198.
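Further: PSI is a weighted mean of each variant's read distribution over the sorted stability bins, computed only for variants having over 10 reads in total.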

What follows are sequences tested on Saccharomyces cerevisiae (assay: protein stability index of tFT-peptide fusion in deletion strain of DAS1 (PSI (0-1 scale)); higher = more stable (slower turnover)).
Method: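 MPS profiling in S. cerevisiae of two library types built from selected 12-aa C-degron peptides (IN1, IN2, LN1, LN3, VN2, R1-R5, W1-W3, Atg1 and Rpa12 C-termini): saturation mutagenesis libraries and C-terminal +1 capping libraries (13 aa). Each peptide is fused to the C-terminus of a sfGFP-mCherry timer, after a GGGS linker. Cells are FACS-sorted into 8 mCherry/sfGFP bins and sequenced. PSI runs from 0 (unstable) to 1 (stable), measured once in wild type and in the das1Δ or doa10Δ background.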
Work on AKHKKGQKQKIN yielded a protein stability index of 0.829.
ARCRVGLWRGAS was tested, and the protein stability index was 0.706.
For ARQRVGLWRGAS, the protein stability index was 0.694.
ARWEVGLWRGAS showed a protein stability index of 0.648.
For ARWRCGLWRGAS, the protein stability index was 0.695.
Work on ARWRNGLWRGAS yielded a protein stability index of 0.701.
For ARWRVFLWRGAS, the protein stability index was 0.674.
For ARWRVGEWRGAS, the protein stability index was 0.684.
With ARWRVGHWRGAS the protein stability index was 0.703.
With ARWRVGLDRGAS the protein stability index was 0.687.
For ARWRVGLWCGAS, the protein stability index was 0.561.
For ARWRVGLWNGAS, the protein stability index was 0.664.
ARWRVGLWRGAL showed a protein stability index of 0.682.
Sequence ARWRVGLWRGAN has a protein stability index of 0.687.
Work on ARWRVGLWRGAP yielded a protein stability index of 0.681.
With ARWRVGLWRGASA the protein stability index was 0.672.
ARWRVGLWRGASV was tested, and the protein stability index was 0.676.
In the case of ARWRVGLWRGAT, the protein stability index is reported as 0.683.
ARWRVGLWRGES gave a protein stability index of 0.695.
In the case of ARWRVGLWRGGS, the protein stability index is reported as 0.684.
Sequence ARWRVGLWRGVS has a protein stability index of 0.689.
In the case of ARWRVGLWRRAS, the protein stability index is reported as 0.673.
With ARWRVGLWWGAS the protein stability index was 0.679.
For ARWRVHLWRGAS, the protein stability index was 0.695.
In the case of ARWRVILWRGAS, the protein stability index is reported as 0.627.
With ARWRYGLWRGAS the protein stability index was 0.678.
With AWWRVGLWRGAS the protein stability index was 0.68.
Sequence AYWRVGLWRGAS has a protein stability index of 0.699.
In the case of CFSCGYKFRTNN, the protein stability index is reported as 0.682.
CKILRQKMNHQN was tested, and the protein stability index was 0.675.
For CTFCGYKFRTNN, the protein stability index was 0.719.
Work on CTSCGYCFRTNN yielded a protein stability index of 0.7.
CTSCGYFFRTNN gave a protein stability index of 0.695.
In the case of CTSCGYIFRTNN, the protein stability index is reported as 0.706.
With CTSCGYKARTNN the protein stability index was 0.686.
CTSCGYKFRTAN was tested, and the protein stability index was 0.673.
Work on CTSCGYKFRTNC yielded a protein stability index of 0.699.
CTSCGYKFRTNP showed a protein stability index of 0.701.
CTSCGYKFWTNN gave a protein stability index of 0.75.
CTSCGYPFRTNN gave a protein stability index of 0.723.
CTSCVYKFRTNN was tested, and the protein stability index was 0.675.
CTSCWYKFRTNN showed a protein stability index of 0.672.
ESLAASFWRVVG showed a protein stability index of 0.689.
FKHKKGQKQKIN was tested, and the protein stability index was 0.586.
In the case of FSMAWTFRYWVN, the protein stability index is reported as 0.456.
FSMFWTFRYWVN showed a protein stability index of 0.403.
FSMRCTFRYWVN gave a protein stability index of 0.522.
With FSMRFTFRYWVN the protein stability index was 0.501.
With FSMRITFRYWVN the protein stability index was 0.336.
Work on FSMRRTFRYWVN yielded a protein stability index of 0.616.
FSMRWTFAYWVN showed a protein stability index of 0.39.
In the case of FSMRWTFRAWVN, the protein stability index is reported as 0.425.
FSMRWTFRDWVN showed a protein stability index of 0.724.
In the case of FSMRWTFRQWVN, the protein stability index is reported as 0.427.
In the case of FSMRWTFRYFVN, the protein stability index is reported as 0.631.
Work on FSMRWTFRYGVN yielded a protein stability index of 0.527.
FSMRWTFRYKVN showed a protein stability index of 0.691.
Work on FSMRWTFTYWVN yielded a protein stability index of 0.389.
For FSMRWTMRYWVN, the protein stability index was 0.482.
For FSMRWTSRYWVN, the protein stability index was 0.598.
For FSMRWTTRYWVN, the protein stability index was 0.566.
FSMRYTFRYWVN showed a protein stability index of 0.648.
With FSRRWTFRYWVN the protein stability index was 0.636.
Sequence GDKRNHLIKLLN has a protein stability index of 0.613.
Sequence GSMRWTFRYWVN has a protein stability index of 0.677.
Work on HLIQPLPVQFLN yielded a protein stability index of 0.713.
IDKRNHLIKLLN showed a protein stability index of 0.584.
With KKHCKGQKQKIN the protein stability index was 0.637.
Work on KKHEKGQKQKIN yielded a protein stability index of 0.603.
KKHKIGQKQKIN showed a protein stability index of 0.563.
In the case of KKHKKDQKQKIN, the protein stability index is reported as 0.606.
KKHKKGIKQKIN gave a protein stability index of 0.588.
KKHKKGMKQKIN was tested, and the protein stability index was 0.659.
KKHKKGNKQKIN was tested, and the protein stability index was 0.601.
KKHKKGQCQKIN gave a protein stability index of 0.801.
Work on KKHKKGQHQKIN yielded a protein stability index of 0.579.
For KKHKKGQIQKIN, the protein stability index was 0.569.
KKHKKGQKLKIN was tested, and the protein stability index was 0.562.
With KKHKKGQKQFIN the protein stability index was 0.558.
In the case of KKHKKGQKQHIN, the protein stability index is reported as 0.648.
KKHKKGQKQKINA was tested, and the protein stability index was 0.655.
Work on KKHKKGQKQKIQ yielded a protein stability index of 0.594.
In the case of KKHKKGQKQKSN, the protein stability index is reported as 0.615.
For KKHKKGQKQWIN, the protein stability index was 0.657.
KKHKKGQKYKIN gave a protein stability index of 0.634.
KKHKKGRKQKIN gave a protein stability index of 0.586.
KKHKKGVKQKIN gave a protein stability index of 0.743.
KKLKKGQKQKIN showed a protein stability index of 0.594.
In the case of KKNKKGQKQKIN, the protein stability index is reported as 0.598.
With KVHKKGQKQKIN the protein stability index was 0.64.
With KWHKKGQKQKIN the protein stability index was 0.562.
LGILRQKMNHQN gave a protein stability index of 0.685.
Sequence LKILKQKMNHQN has a protein stability index of 0.68.
LKILRFKMNHQN was tested, and the protein stability index was 0.667.
Work on LKILRPKMNHQN yielded a protein stability index of 0.669.
Work on LKILRQKMAHQN yielded a protein stability index of 0.673.
LKILRQKMEHQN showed a protein stability index of 0.671.
Sequence LKILRQKMNHDN has a protein stability index of 0.671.
LKILRQKMNHEN gave a protein stability index of 0.671.
In the case of LKILRQKMNHQNE, the protein stability index is reported as 0.656.
LKILRQKMNHQNL was tested, and the protein stability index was 0.697.
In the case of LKILRQKMNHQNN, the protein stability index is reported as 0.671.
With LKILRQKMNHQT the protein stability index was 0.671.
In the case of LKILRQKMNHVN, the protein stability index is reported as 0.666.
With LKILRQKMNHYN the protein stability index was 0.657.
In the case of LKILRQKMNIQN, the protein stability index is reported as 0.686.
LKILRQKMNSQN showed a protein stability index of 0.672.
For LKILRQKMPHQN, the protein stability index was 0.692.
LKILRQKPNHQN gave a protein stability index of 0.675.
For LKILRSKMNHQN, the protein stability index was 0.666.
Sequence LKILRWKMNHQN has a protein stability index of 0.658.
LKILRYKMNHQN was tested, and the protein stability index was 0.64.
LKILSQKMNHQN was tested, and the protein stability index was 0.681.
LKKLRQKMNHQN was tested, and the protein stability index was 0.68.
Sequence LKNLRQKMNHQN has a protein stability index of 0.678.
LVDYLSCVACIN showed a protein stability index of 0.354.
In the case of LVFYLSCVACIN, the protein stability index is reported as 0.0573.
